Experimental data from the supplement of paper PMC9170038.

Experiments:
MS2 coat protein [1] = assay: apparent KD of MS2 coat protein, switch ON state; designed switch direction (-1 OFF switch, 1 ON switch): -1; higher = weaker reporter binding; details: FMN input: 0 or 200 uM; Eterna round: R93 (includes R88 designs)
Method in brief: (§1)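 On-chip transcription from Illumina sequencing clusters produced the designed RNA switches. These were titrated with SNAP-549-labelled MS2 coat protein (twofold steps, 0.7 or 1.5 nM to 3 µM) in 100 mM Tris-HCl pH 7.5, 80 mM KCl, 4 mM MgCl2, with or without constant ligand. The apparent KD given is the per-design median of normalised cluster binding-curve fits.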

MS2 coat protein [2] = assay: apparent KD of MS2 coat protein, switch OFF state (with FMN for OFF switches, without FMN for ON switches); designed switch direction (-1 OFF switch, 1 ON switch): -1; higher = weaker reporter binding; details: FMN input: 0 or 200 uM; Eterna round: R93 (includes R88 designs)
Method in brief: as §1

Row | Sequence | apparent KD of MS2 coat protein (MS2 coat protein [1]) [µM] | apparent KD of MS2 coat protein (MS2 coat protein [2]) [µM]
1 | AGUCAUACAGGAUAUACAUGAGGAUCACCCAUGUUUAUCCUAAAAAGGUGAUCCUCAUGUAGAAGGGUAUGACA [EX3 210: Super Stable 10] | 0.0124 | 0.0166
2 | AGUUGGCGAGGAUAUACAUGAGGAUCACCCAUGUGAGAAAAAAAAGUGAGAAAGAAAAGUAGAAGGCGCUGACA [Mat - Exclusion 3 - Lego mod - D88] | 0.0546 | 0.314
3 | AUAAAACAUGAGGAUCACCCAUGUAAGGAUAUGCGAAAAUAAAAUAAAAUAAAAUAAAGCAGAAGGUACAAAAA [Insulation 1] | 0.0291 | 0.0373
4 | AUAAACUGAGGAUAUACAUGAGGAUCACCCAUGUAAAAAAAAAAAAGUUCCUCAAAAAGUAGAAGGCAGAAUAA [JR_Exc003_Sub013] | 0.0132 | 0.0194
5 | AUAAAGCGAGGAUAUACAUGAGGAUCACCCAUGUAAAUAAAUAGGAGAGCCACAAUAAGUAGAAGGUGCAAUAA [JR_Exc003_Sub008] | 0.0548 | 0.0465
6 | AUAAGUCGAGGAUAUACAAAAUGCUAGCGAAAGCUAGCAUAACAUGAGGAUCACCCAUGUAGAAGGCGACAAUA [Tetraloop hairpin BlockHead Variation2] | 0.0217 | 0.0213
7 | AUAGGCCUAGGAUAUACAUGAGGAUCACCCAUGUUAAUAAUUCAAACAUGAUAAACGUGUAGAAGGAGGAAUAA [JR_Exc003_Sub302] | 0.0408 | 0.0653
8 | AUCAUGUCAGGAUAUCGUGCAGCUACCGAAAGGUAGCUGCACGAGAAGGGACAUGAGGAUCACCCAUGUAUGAA | 0.0277 | 0.0243
9 | AUCGAUCGAGGAUAUACAUGAGGAUCACCCAUGUAAAAAAAAAAAAAGGCCUCAGGAUGUAGAAGGCGACGCAA [JR_Exc003_Sub403] | 0.0185 | 0.0187
10 | AUCGUUGGAGGAUAUGCUUGGAAAAAAAAAAAAAAAAAAAAACAUGAGGAUCACCCAUGUAGAAGGUCAAUGGA [Banishment 6 - Jieux - Exclusion 2] | 0.0499 | 0.0305
11 | AUGUACCUAGGAUAUACAUGAGGAUCACCCAUGUAUUGGGAGCAAUCCAGUUAAUAUUGUAGAAGGAGGUGAAA [JR_Exc003_Sub317] | 0.0381 | 0.065
12 | AUUCUACAUGAGGAUCACCCAUGUGAGGAUAUGCUAUACUAUUGUUGCAAUACUUAGAGCAGAAGGCACAUCGU [JR_EXc001_Sub801] | 0.0302 | 0.0662
13 | CAAAACAAAGGAUAUAAAACAGAGGAUAUACAUAAAUAAAAACAUGAGGAUCACCCAUGUAGAAGGCUGAAAAC [Meechl Ex2 R2 m3] | 0.0219 | 0.023
14 | CAAAAGGAAGGAUAUACAUAAUAAAACGGGCGGGCACCUUGACAUGAGGAUCACCCAUGUAGAAGGUCCAAUAA [Ramaanan] | 0.0169 | 0.0181
15 | CAAAGGUGAGGAUAUACGAGGAUAUGACGAAAGUCAUAAAAACAUGAGGAUCACCCAUGUAGAAGGCACCACAA [E2 64% 5] | 0.0278 | 0.0328
16 | CAGUACUGAGGAUAUACAUGAGGAUCACCCAUGUGAUCAAGCUACGAAAGUAGCACAUGUAGAAGGCAGUACUG [Ex3: 808] | 0.024 | 0.0191
17 | CAGUACUGAGGAUAUACAUGAGGAUCACCCAUGUGGGAAAGCUACGAAAGUAGCAAAUGUAGAAGGCAGUACUG [Ex3: 805] | 0.153 | 0.0987
18 | CCCAUGUCAGGAUAUCAGUAGUAAAAAAAAAAAAUUACUACUGAGAAGGGACAUGAGGAUCACCCAUGUACCUU [EX4 319: Super Stable 19] | 0.0721 | 0.0681
19 | CCCUAGUCAGGAUAUACAAACAUGUCAAAAGACGUGAAAAAACAUGAGGAUCACCCAUGUAGAAGGGACUAGGG [Mat - Exclusion 2 - JL mod - D19] | 0.0153 | 0.0152
